Experimental data reported in paper doi:10.1101/2022.09.05.506711.

Biological target: Francisella tularensis class II fructose-1,6-bisphosphatase (Francisella tularensis)
Test: crystal structure

Substance: Francisella tularensis class II fructose-1,6-bisphosphatase (enzyme)
- stoichiometry N: 4
